In assay [1] the target is Redbeads. The assay can be described thus: flow cytometry of red fluoromagnetic beads specific for alemtuzumab in PBS with 3% BSA, sample at 0 ug/ml (background of the series). For orientation: In flow cytometry, cells or beads pass a laser one at a time.
In assay [2] the target is Redbeads. The assay can be described thus: flow cytometry of red fluoromagnetic beads specific for alemtuzumab in spiked PBS with 3% BSA; the text words the ug/ml values as concentrations of the beads.

In the assay with Redbeads [1], alemtuzumab (antibody) returned a Mean, FL1-H (blank sample at 0.0 ug/ml) of 2.11 and a Median, FL1-H (blank sample at 0.0 ug/ml) of 1.68. Further, in the assay with Redbeads [2], the Mean, FL1-H (sample at 0.1 ug/ml) turned out to be 5.69; the Mean, FL1-H (sample at 0.5 ug/ml) came out at 49.1; the Mean, FL1-H (sample at 1.0 ug/ml) was 94.4; the Mean, FL1-H (sample at 10 ug/ml) worked out at 493. In the assay with Redbeads [2], this substance showed a Median, FL1-H (sample at 0.1 ug/ml) of 5.26; a Median, FL1-H (sample at 0.5 ug/ml) of 36.2; a Median, FL1-H (sample at 1.0 ug/ml) of 74.3; a Median, FL1-H (sample at 10 ug/ml) of 483.

The values are drawn from patent US20160146829A1.
